Reference: publication PMC3241658

T1: TWINKLE (UniProt Q96RR1 32-684)
T1 sequence: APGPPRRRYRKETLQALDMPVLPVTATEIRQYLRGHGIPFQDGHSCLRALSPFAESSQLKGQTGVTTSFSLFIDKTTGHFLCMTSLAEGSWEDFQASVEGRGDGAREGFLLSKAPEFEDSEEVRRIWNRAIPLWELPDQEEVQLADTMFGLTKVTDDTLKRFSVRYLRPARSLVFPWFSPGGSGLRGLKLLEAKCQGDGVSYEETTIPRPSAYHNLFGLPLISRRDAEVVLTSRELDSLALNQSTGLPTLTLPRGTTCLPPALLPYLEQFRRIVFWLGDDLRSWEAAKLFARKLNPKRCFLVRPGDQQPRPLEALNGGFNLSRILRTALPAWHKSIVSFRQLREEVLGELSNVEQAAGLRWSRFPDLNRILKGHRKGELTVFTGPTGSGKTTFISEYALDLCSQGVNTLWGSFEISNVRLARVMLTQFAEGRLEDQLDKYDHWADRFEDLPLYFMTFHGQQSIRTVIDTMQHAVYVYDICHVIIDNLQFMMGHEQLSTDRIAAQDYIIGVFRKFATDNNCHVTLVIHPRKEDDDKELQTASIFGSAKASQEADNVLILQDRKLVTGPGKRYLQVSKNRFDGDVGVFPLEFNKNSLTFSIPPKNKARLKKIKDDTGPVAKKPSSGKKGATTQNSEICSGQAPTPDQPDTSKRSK

B1: closed circular ssDNA (100 nt) (ssDNA)
DNA: GAGGGGTATGTTTTTTTTTTTTTTTTTTTTTTTTTTTTTTTTTTTTTTTTTTTTTTTTTTTTTTTTTTTTTTTTTTTTTTTTTTTTTTTTCATACCCCTAT
B2: linear dsDNA (100 bp) (dsDNA)
DNA 1: GATTTTTTTTTTTTTTTTTTTTTTTTTTTTTTTTTTTTTCATACCCCTATGAGGGGTATGTTTTTTTTTTTTTTTTTTTTTTTTTTTTTTTTTTTTTTAT
DNA 2: ATAAAAAAAAAAAAAAAAAAAAAAAAAAAAAAAAAAAAAACATACCCCTCATAGGGGTATGAAAAAAAAAAAAAAAAAAAAAAAAAAAAAAAAAAAAATC
B3: linear ssDNA (100 nt) (ssDNA)
DNA: GATTTTTTTTTTTTTTTTTTTTTTTTTTTTTTTTTTTTTCATACCCCTATGAGGGGTATGTTTTTTTTTTTTTTTTTTTTTTTTTTTTTTTTTTTTTTAT

target: T1, TWINKLE; assay: EMSA

Binding result, binds:
B1
B2
B3
